Values joined by “and” are separate entries in the source; they are usually repeats but may differ in a detail not shown here. Equal entries are not always repeated. Numbered stars: 1 amine (or outer) side, 2 acyl side, 3 side chain; on linkers, the order of the positions; unused ones are H or OH. Bridge positions count the residues as written; N and C are the ends. Square brackets hold non-standard residues; d marks the D form. Peptide text beside a SMILES is read from it. I, II: the chains in the order shown. Actinocin(9to1) = Cc1c2oc3c(C)ccc(C(=O)[*:1])c3nc-2c(C(=O)[*:2])c(N)c1=O; NMeV = CN[C@H](C(=O)O)C(C)C; Sar = CNCC(=O)O
Assays:
L929 cells = assay: Percent toxicity of control wells in L929 cells; format: cell-based, mouse; details: Actinomycin D only (no TNFα), sample replicates
[1] = system: GloResponse SIE-luc2P/HEK 293 cells; assay: BCA protein concentration of reporter cells run in parallel; format: cell-based
[2] = system: rabbit anti-llama biotinylated antibody or his-probe (H-3) biotin labeled antibody; assay: ELISA with sdAbs coated, binding of secondary antibodies (Experiments 2 and 3)
Method: Two assays (Experiment 2 and 3) were performed to assess the binding of the secondary antibody to the sdAbs. A similar ELISA method was utilized except the sdAbs were directly coated onto the assay plate at a concentration of 1 μg/mL. Plates were incubated overnight at 2-8° C. After the incubation, plates were washed (3×) and blocked (3% BSA in PBS) for at least one hour at room temperature.
After removal of the blocking buffer and washing (3×), the secondary antibodies, either rabbit anti-llama biotinylated antibody or his-probe (H-3) biotin labeled antibody at was then added at a 1:5,000 dilution to each well and incubated with shaking for at least one hour at room temperature. Only the rabbit anti-llama biotinylated antibody was used in Experiment 2. Both antibodies were run in parallel in Experiment 3.
After the incubation with secondary antibody, the plates were again washed (3×) and HRP at a 1:50,000 dilution was added to each well. Plates were incubated with shaking for at least one hour at room temperature. One last wash (3×) was performed followed by the addition of TMB substrate and plates were incubated at room temperature. For the anti-llama biotinylated antibody stop solution was added to halt the colorimetric reaction at 10 minutes. The his-probe (H-3) biotin labeled antibody was allowed to incubate for 20 minutes prior to stopping. The absorbance at 450 nm was measured as before.

endogenous STAT3 = biological target: T1, endogenous STAT3 (Homo sapiens, UniProt P40763); assay: Immunoprecipitation of endogenous STAT3 from MDA-MB-231 lysate, Western blot; format: binding; details: FIG. 3
T1 construct: endogenous STAT3 immunoprecipitated with all sdAbs tested at varying amounts; endogenous in cells
Method: The specificity of STAT3 sdAbs was assayed in human breast cancer cells. […] The cells were then disrupted in freshly prepared ice-cold lysis buffer (20 mM HEPES, pH 7.9, 400 mM NaCl, 0.1% NP-40, 10% glycerol, 1 mM sodium vanadate, 1 mM sodium fluoride, 1 mM dithiothreitol, 1 mM phenylmethylsulfonyl fluoride, 10 μg/mL aprotinin, 10 μg/mL leupeptin) for 45 minutes on ice. Lysates were then centrifuged, the supernatant collected, and protein concentration was determined using a modified Lowry method (Bio Rad, Hercules, Calif.). Total protein (1 mg) was incubated with 1.5 mg of Dynabeads (Invitrogen) with sdAbs against STAT3, a positive control (STAT3, cat#SC-482, Santa Cruz Biotechnology, Dallas, Tex.), or negative control (STAT-1, cat#9172, Cell Signaling, Danvers, Mass.) for 1 hour at 4° C. Beads were then washed. Following the final wash, 60 μl of lysis buffer was added, and the resulting supernatant was subject to Western blot analysis. Briefly, samples were separated on 10% polyacrylamide gels and transferred to a nitrocellulose membrane. The membranes were blocked, then incubated with appropriate primary and secondary antibodies. Anti-STAT3 antibody, used as a positive control, was from Cell Signaling (Cat#4904, Danvers, Mass.). The chemiluminescence reaction was performed using the ECL system from Santa Cruz Biotechnology (Dallas, Tex.).

[3] = system: STAT3 reporter, induction by interleukin-6; assay: STAT3 reporter GloResponse SIE-luc2P/HEK293 cell assay, IL-6 induction; format: cell-based;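 also: IL-6 added at 40 ng/mL (EC80) for roughly one day after pretreatment, luciferase luminescence read with Bio-Glo reagent, untreated +IL6 wells serve as control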
MDA-MB-231 cells = assay: MTT proliferation assay, MDA-MB-231; format: cell-based, human
[4] = 24 Hour Treatment Prior to IL6 Induction, high conc.: VHH13 55.8 μg/mL, VHH14 84.3 μg/mL, BB1608 4.16 μM, VHH69 50.5 μg/mL
[5] = 24 Hour Treatment Prior to IL6 Induction, low conc.: VHH13, VHH14, VHH69 10 μg/mL, BB1608 2 μM
[6] = 48 Hour Treatment Prior to IL6 Induction, high conc.: VHH13 55.8 μg/mL, VHH14 84.3 μg/mL, BB1608 4.16 μM, VHH69 50.5 μg/mL
[7] = 48 Hour Treatment Prior to IL6 Induction, low conc.: VHH13, VHH14, VHH69 10 μg/mL, BB1608 2 μM

T1 sequence (P40763 whole entry): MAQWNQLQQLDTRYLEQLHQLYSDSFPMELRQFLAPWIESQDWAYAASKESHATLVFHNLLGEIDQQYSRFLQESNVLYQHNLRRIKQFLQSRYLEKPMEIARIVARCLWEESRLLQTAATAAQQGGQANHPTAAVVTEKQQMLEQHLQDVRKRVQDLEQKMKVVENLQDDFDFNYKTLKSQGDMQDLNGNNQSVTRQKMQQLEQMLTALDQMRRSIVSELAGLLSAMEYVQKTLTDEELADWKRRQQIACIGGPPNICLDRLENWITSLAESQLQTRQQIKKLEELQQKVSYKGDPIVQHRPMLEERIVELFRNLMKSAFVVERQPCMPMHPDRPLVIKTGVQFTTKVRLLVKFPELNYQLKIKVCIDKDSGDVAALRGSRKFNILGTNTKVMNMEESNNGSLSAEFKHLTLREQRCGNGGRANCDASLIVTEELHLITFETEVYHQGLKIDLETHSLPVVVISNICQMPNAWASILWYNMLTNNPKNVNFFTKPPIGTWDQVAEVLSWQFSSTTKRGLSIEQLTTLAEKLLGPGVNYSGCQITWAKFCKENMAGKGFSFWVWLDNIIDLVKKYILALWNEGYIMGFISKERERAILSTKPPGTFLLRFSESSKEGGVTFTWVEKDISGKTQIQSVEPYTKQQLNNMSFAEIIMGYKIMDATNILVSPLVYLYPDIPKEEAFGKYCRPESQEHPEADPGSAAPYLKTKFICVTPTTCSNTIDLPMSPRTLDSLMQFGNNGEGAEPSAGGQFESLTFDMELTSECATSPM

## Cc1c2oc3c(C)ccc(C(=O)N[C@@H]4C(=O)N[C@H](C(C)C)C(=O)N5CCC[C@H]5C(=O)N(C)CC(=O)N(C)[C@@H](C(C)C)C(=O)O[C@@H]4C)c3nc-2c(C(=O)N[C@@H]2C(=O)N[C@H](C(C)C)C(=O)N3CCC[C@H]3C(=O)N(C)CC(=O)N(C)[C@@H](C(C)C)C(=O)O[C@@H]2C)c(N)c1=O [Actinomycin D] (I: T[dV]P[Sar][NMeV] / II: T[dV]P[Sar][NMeV]; ester I:1-I:C, II:1-II:C; linker I:N-II:N via Actinocin(9to1))
L929 cells; Assay 1
  % Toxicity: 18.6% and 5.4% and 2.3% and 3.5% and 0% (8×)
L929 cells; Assay 2
  % Toxicity: 2.3% and 0% (4×) and 10.4% and 0.4%

B1: Anti-STAT3 VHH14: second anti-STAT3 single domain antibody, SEQ ID NO:4 (protein)
VHH: QVQLVESGGGSVQAGGSLRLSCVASTYTGCMGWFRQAPGKEREGVAALSSRGFAGHYTDSVKGRFSISRDYVKNAVYLQMNTVKPEDAAMYYCAAREGWECGETWLDRTAGGHTYWGQGTLVTVSS
modifications: Camelid
[1]; [4]
  Protein concentration: 270
[1]; [5]
  Protein concentration: 189
[1]; [6]
  Protein concentration: 229
[1]; [7]
  Protein concentration: 216
[2]; His-probe (H-3), Experiment 3, stored 1:100 dilution of sdAb
  OD450 Values: 3.416
[2]; Rabbit anti-Llama Secondary Antibody, Experiment 2, sdAb coated at 1 μg/mL
  OD450 Values: 2.813
[2]; Rabbit anti-Llama Secondary Antibody, Experiment 3, stored 1:100 dilution of sdAb
  OD450 Values: 2.439
Endogenous STAT3
  immunoprecipitation of endogenous STAT3: immunoprecipitated
[3]; [4]
  Average RLU: 496624 RLU
  Average RLU with Media Blank: 496598 RLU
  Luminescence (RLU), single wells: 465649 RLU and 520343 RLU and 503880 RLU
[3]; [5]
  Average RLU: 214828 RLU
  Average RLU with Media Blank: 214803 RLU
  Luminescence (RLU), single wells: 218125 RLU and 203210 RLU and 223150 RLU
[3]; [6]
  Average RLU: 480595 RLU
  Average RLU with Media Blank: 480562 RLU
  Luminescence (RLU), single wells: 494706 RLU and 488307 RLU and 458771 RLU
[3]; [7]
  Average RLU: 232537 RLU
  Average RLU with Media Blank: 232504 RLU
  Luminescence (RLU), single wells: 241785 RLU and 236843 RLU and 218982 RLU
[3]; 24 hours and 48 hours treatment prior to IL-6
  effect on IL-6 induction of STAT3 reporter: enhancement of the IL-6 induction
MDA-MB-231 cells; MDA-MB-231, 3 days of treatment, 10.0 μg/ml
  % Inhibition: 23.1%
MDA-MB-231 cells; MDA-MB-231, 3 days of treatment, 100.0 μg/ml
  % Inhibition: 57.0%
MDA-MB-231 cells; MDA-MB-231, 3 days, 10.0 μg/ml
  Overall Average % Inhibition: 26.2%
MDA-MB-231 cells; MDA-MB-231, 3 days, 10.0 μg/ml, single experiments 1-4, listed as B.VHH14
  Mean Growth Inhibition: 23.1% and 20.0% and 38.5% and 23.3%
MDA-MB-231 cells; MDA-MB-231, 3 days, 100 μg/ml
  Overall Average % Inhibition: 55.7%
MDA-MB-231 cells; MDA-MB-231, 3 days, 100 μg/ml, single experiments 1-4, listed as B.VHH14
  Mean Growth Inhibition: 57.0% and 42.8% and 62.3% and 60.6%
MDA-MB-231 cells; MDA-MB-231, 5 days of treatment, 0.5 μg/ml
  % Inhibition: 0%
MDA-MB-231 cells; MDA-MB-231, 5 days of treatment, 1.0 μg/ml
  % Inhibition: 0%
MDA-MB-231 cells; MDA-MB-231, 5 days of treatment, 10.0 μg/ml
  % Inhibition: 5.5%
MDA-MB-231 cells; MDA-MB-231, 5 days of treatment, 100.0 μg/ml
  % Inhibition: 18.9%
MDA-MB-231 cells; MDA-MB-231, 5 days, 10.0 μg/ml
  Overall Average % Inhibition: 14.9%
MDA-MB-231 cells; MDA-MB-231, 5 days, 100 μg/ml
  Overall Average % Inhibition: 38.6%
MDA-MB-231 cells; MDA-MB-231, Day 3, 0.5 μg/ml
  Mean Absorbance (570 nM) ± S.E.: 0.666 ± 0.022
MDA-MB-231 cells; MDA-MB-231, Day 3, 1.0 μg/ml
  Mean Absorbance (570 nM) ± S.E.: 0.644 ± 0.045
MDA-MB-231 cells; MDA-MB-231, Day 3, 10.0 μg/ml
  Mean Absorbance (570 nM) ± S.E.: 0.456 ± 0.048
MDA-MB-231 cells; MDA-MB-231, Day 3, 100 μg/ml
  Mean Absorbance (570 nM) ± S.E.: 0.255 ± 0.005
MDA-MB-231 cells; MDA-MB-231, Day 5, 0.5 μg/ml
  Mean Absorbance (570 nM) ± S.E.: 0.733 ± 0.038
MDA-MB-231 cells; MDA-MB-231, Day 5, 1.0 μg/ml
  Mean Absorbance (570 nM) ± S.E.: 0.794 ± 0.023
MDA-MB-231 cells; MDA-MB-231, Day 5, 10.0 μg/ml
  Mean Absorbance (570 nM) ± S.E.: 0.640 ± 0.011
MDA-MB-231 cells; MDA-MB-231, Day 5, 100 μg/ml
  Mean Absorbance (570 nM) ± S.E.: 0.549 ± 0.023
MDA-MB-231 cells; Table 6, MDA-MB-231, Day 3, 10.0 μg/ml
  Mean Absorbance (570 nM) ± S.E., Overall Mean: 0.504 ± 0.021
MDA-MB-231 cells; Table 6, MDA-MB-231, Day 3, 10.0 μg/ml, single experiments 1-4, listed as B.VHH14
  Mean Absorbance (570 nM) ± S.E.: 0.456 ± 0.048 and 0.499 ± 0.018 and 0.502 ± 0.048 and 0.559 ± 0.041
MDA-MB-231 cells; Table 6, MDA-MB-231, Day 3, 100 μg/ml
  Mean Absorbance (570 nM) ± S.E., Overall Mean: 0.302 ± 0.043
MDA-MB-231 cells; Table 6, MDA-MB-231, Day 3, 100 μg/ml, single experiments 1-4, listed as B.VHH14
  Mean Absorbance (570 nM) ± S.E.: 0.255 ± 0.005 and 0.357 ± 0.019 and 0.308 ± 0.021 and 0.287 ± 0.021
MDA-MB-231 cells; Table 7, MDA-MB-231, Day 5, 10.0 μg/ml
  Mean Absorbance (570 nM) ± S.E., Overall Mean: 0.688 ± 0.131
MDA-MB-231 cells; Table 7, MDA-MB-231, Day 5, 100 μg/ml
  Mean Absorbance (570 nM) ± S.E., Overall Mean: 0.475 ± 0.0690

Reference: patent US20170327598A1, “SINGLE DOMAIN ANTIBODIES DIRECTED AGAINST INTRACELLULAR ANTIGENS” (SINGH MOLECULAR MEDICINE, LLC, priority 2014, published 2017)
